# Data taken from patent US20260258083A1 (Amgen, published 2026).
# Where no end group is shown, it is not given here. Side-chain parts run from the residue outwards. [ ]: non-standard residue; d: D form. thiosuccinimide (maleimide) = thiosuccinimide linkage from the Cys thiol to the maleimide of 4-arm 5 kDa PEG; pGlu = O=C1CC[C@@H](C(=O)O)N1; disulfide = not defined here; MAL = maleimide
# B1: (QDGNEEMGKGMEENGDQC)4 -PEG(20 kDa) (peptide)
# peptide: QDGNEEMGKGMEENGDQC(4‑arm PEG 20 kDa)
# modifications: also: four peptides on one 4-arm PEG
# notes: Peptide-PEG conjugate with four peptides on one PEG; also called CD3ε PepPOL, v1 (20 kDa); 4-arm 20 kDa PepPOL conjugate
# B2: QDGNEEMG-GMEENGDQ (peptide)
# peptide: QDGNEEMGGMEENGDQ
# notes: how the reversed half is joined is not explained
# B3: (pGlu-DGNEEMGKGMEENGDQC)4 -PEG(20 kDa) (peptide)
# peptide: [pGlu]DGNEEMGKGMEENGDQC([disulfide-4‑arm PEG 20 kDa])
# modifications: reading uncertain; also: four peptides on one 4-arm PEG, printed as pGlu-DGNEEMGKGMEENGDQC
# notes: also called CD3ε PepPOL, v2; Pep-PEG v2
# Experiments:
# [1] = molecular target: T1, FLT3xCD3 TCE SEQ ID NO 93; experiment: Table 5, ratio to a reference peptide that the table does not name; parameters: reference not given here
# T1 construct: Single-chain scFv-scFv-scFc T cell engager; also called FLT3×CD3ε TCE; FLT3_7 A8xCD3-scFc Bispecific HLE molecule
# [2] = molecular target: T1, FLT3xCD3 TCE SEQ ID NO 93; experiment: KinExA equilibrium in solution, Table 5
# Experimental: (§1) 1. Preparation of NHS-activated sepharose fast-flow beads: [0565] 2. Fast flow sepharose suspension in 100% IPA, washed twice with milliQ H20, mild centrifugation to pool beads in between wash steps. [0566] 3. […] 4. Added 80 mM PDEA to activate the resin for thiol exchange, 10 mins, r.t. [0568] 5. […] 6. Added 30 μg/mL of binding peptide, […] […] (SEQ ID NO: 300), reaction for 1 hr to functionalize resin. [0570] 7. Quench with 10 mM L-Cys for 1 hour. [0571] 8.
# [3] = molecular target: T1, FLT3xCD3 TCE SEQ ID NO 93; experiment: SPR solution competition, peptide titrated into fixed TCE, free TCE read on peptide capture surface
# Text: (§2) For the binding assessment, Individual binding isotherms were constructed by titrating the respective peptide of interest into a fixed concentration of TCE-containing solution in PBST. At least 4 hrs equilibration time were allotted (r.t.) prior to analysis by SPR. For the analysis, a calibration curve was first constructed of the TCE analyte being assessed. […] The ‘free’ TCE concentration measured was plotted as a function of log peptide concentration and fit using non-linear regression analysis to a 4 parameter logistic function to derive an IC50.
# [4] = molecular target: T1, FLT3xCD3 TCE SEQ ID NO 93; experiment: KinExA association kinetics, Table 5
# Experimental: as §1
# [5] = molecular target: T1, FLT3xCD3 TCE SEQ ID NO 93; experiment: kinetics, Table 5
# Experimental: as §1
# [6] = molecular target: T2, DLL3xCD3 TCE SEQ ID NO 104; experiment: KinExA equilibrium in solution, KD relative to peptide concentration, TCE 250 pM
# T2 construct: Single-chain T cell engager; also called DLL3×CD3ε TCE
# [7] = molecular target: T3, Steap 1xCD3 TCE SEQ ID NO 373 + 374 + 375; experiment: SPR solution competition, peptide titrated into fixed TCE, free TCE read on peptide capture surface
# T3 construct: also called STEAP1×CD3e heterodimeric TCE; Ab-A1 Xmab2+1
# Text: as §2
# [8] = molecular target: T1, FLT3xCD3 TCE SEQ ID NO 93; experiment: SPR, peptide immobilised on CM5 (PDEA), TCE as analyte, kinetic 1:1 fit
# [9] = molecular target: T3, Steap 1xCD3 TCE SEQ ID NO 373 + 374 + …; experiment: as above
# [10] = molecular target: T2, DLL3xCD3 TCE SEQ ID NO 104; experiment: as above
binder,measurement,setting,value
[pGlu]DGNEEMGKGMEENGDQC (Position 1 is written E for pE) [pGlu-DGNEEMGKGMEENGDQC],fold-Kd,[1],203 fold
same,Kd,[2],0.176 nM
same,IC50,[3],2.4 nM
B1,fold-kon,[1],1.14 fold
same,kon,[4],199000 M⁻¹ s⁻¹
same,koff,[5],0.0047 s⁻¹
same,Kd,[2],22 nM
QDGNEEMGQDGNEEMG [QDGNEEMG-QDGNEEMG],fold-Kd,[1],3.25 fold
same,fold-koff,[1],0.24 fold
same,fold-kon,[1],0.77 fold
same,kon,[4],533000 M⁻¹ s⁻¹
same,koff,[5],0.00586 s⁻¹
same,Kd,[2],11 nM
[pGlu]DGNEELKGC([MAL-PEG 10 kDa]) (also: four peptides per PEG) [(pGlu-DGNEELKGC)4 -MAL PEG(10 kDa)],Kd,[2],0.142 nM
QDGNEEMGKQDGNEEMG [QDGNEEMG-K-QDGNEEMG],fold-Kd,[1],2.77 fold
same,fold-koff,[1],0.28 fold
same,fold-kon,[1],0.56 fold
same,kon,[4],448000 M⁻¹ s⁻¹
same,koff,[5],0.00497 s⁻¹
same,Kd,[2],8.05 nM
[pGlu]DGNEELPKPGC (Position 1 is written E for pGlu) [pGlu-DGNEELPKPGC],IC50,[3],2.7 nM
B2,fold-Kd,[1],3.62 fold
same,fold-koff,[1],0.19 fold
same,fold-kon,[1],0.69 fold
same,kon,[4],476000 M⁻¹ s⁻¹
same,koff,[5],0.00471 s⁻¹
same,Kd,[2],9.88 nM
B3,fold-Kd,[1],203 fold
same,fold-koff,[1],0.01 fold
same,fold-kon,[1],16.2 fold
same,kon,[4],1.12e+07 M⁻¹ s⁻¹
same,koff,[5],0.00195 s⁻¹
same,Kd,[2],0.176 nM
[pGlu]DGNEELKPGC (Position 1 is written E for pGlu) [pGlu-DGNEELKPGC],IC50,[3],5.2 nM
QDGNEEMGK [QDGNEEMG-K],kon,[4],806000 M⁻¹ s⁻¹
same,koff,[5],0.0179 s⁻¹
same,Kd,[2],22.3 nM
"[pGlu]DGEEELKGC([thiosuccinimide-4‑arm PEG 20 kDa])-NH2 (also: 4-arm PEG conjugate, number of peptide copies not given here, TCE masking molecule) [79676-1]",Kd,[6],12.8 nM
"[pGlu]DGEEELKGC([thiosuccinimide (maleimide)-4‑arm PEG 5 kDa])-NH2 (also: 4-arm PEG conjugate, number of peptide copies not given here, TCE masking molecule) [79677-1]",Kd,[6],4.69 nM
[pGlu]DGVEELKGC (Position 1 is written E for pGlu) [pGlu-DGVEELKGC],IC50,[3],9 nM
same,IC50,[7],26.4 nM
[pGlu]DGIEELKGC (Position 1 is written E for pGlu) [pGlu-DGIEELKGC],IC50,[3],3.6 nM
same,IC50,[7],11.6 nM
[pGlu]DGTEELKGC (Position 1 is written E for pGlu) [pGlu-DGTEELKGC],Kd,[8],8.88 nM
same,koff,[8],0.0285 s⁻¹
same,kon,[8],3.21e+06 M⁻¹ s⁻¹
same,Kd,[9],35.2 nM
same,koff,[9],0.0734 s⁻¹
same,kon,[9],2.09e+06 M⁻¹ s⁻¹
same,Kd,[10],14.8 nM
same,koff,[10],0.0713 s⁻¹
same,kon,[10],4.81e+06 M⁻¹ s⁻¹
same,IC50,[3],39.7 nM
same,IC50,[7],59.9 nM
[pGlu]DGSEELKGC (Position 1 is written E for pGlu) [pGlu-DGSEELKGC],IC50,[3],8.2 nM
same,IC50,[7],16.7 nM
[pGlu]DGNEELKGC([MAL-PEG 5 kDa]) (also: four peptides per PEG) [(pGlu-DGNEELKGC)4 -MAL PEG(5 kDa)],Kd,[2],0.142 nM
